Experimental data as given in IntAct's records for PubMed 31515488.

B1: Aflatoxin B1 aldehyde reductase member 2 (Homo sapiens), O43488 (parent)
chain: MLSAASRVVSRAAVHCALRSPPPEARALAMSRPPPPRVASVLGTMEMGRRMDAPASAAAVRAFLERGHTELDTAFMYSDGQSETILGGLGLGLGGGDCRVKIATKANPWDGKSLKPDSVRSQLETSLKRLQCPQVDLFYLHAPDHGTPVEETLHACQRLHQEGKFVELGLSNYASWEVAEICTLCKSNGWILPTVYQGMYNATTRQVETELFPCLRHFGLRFYAYNPLAGGLLTGKYKYEDKDGKQPVGRFFGNSWAETYRNRFWKEHHFEAIALVEKALQAAYGASAPSVTSAALRWMYHHSQLQGAHGDAVILGMSSLEQLEQNLAATEEGPLEPAVVDAFNQAWHLVAHECPNYFR
partner: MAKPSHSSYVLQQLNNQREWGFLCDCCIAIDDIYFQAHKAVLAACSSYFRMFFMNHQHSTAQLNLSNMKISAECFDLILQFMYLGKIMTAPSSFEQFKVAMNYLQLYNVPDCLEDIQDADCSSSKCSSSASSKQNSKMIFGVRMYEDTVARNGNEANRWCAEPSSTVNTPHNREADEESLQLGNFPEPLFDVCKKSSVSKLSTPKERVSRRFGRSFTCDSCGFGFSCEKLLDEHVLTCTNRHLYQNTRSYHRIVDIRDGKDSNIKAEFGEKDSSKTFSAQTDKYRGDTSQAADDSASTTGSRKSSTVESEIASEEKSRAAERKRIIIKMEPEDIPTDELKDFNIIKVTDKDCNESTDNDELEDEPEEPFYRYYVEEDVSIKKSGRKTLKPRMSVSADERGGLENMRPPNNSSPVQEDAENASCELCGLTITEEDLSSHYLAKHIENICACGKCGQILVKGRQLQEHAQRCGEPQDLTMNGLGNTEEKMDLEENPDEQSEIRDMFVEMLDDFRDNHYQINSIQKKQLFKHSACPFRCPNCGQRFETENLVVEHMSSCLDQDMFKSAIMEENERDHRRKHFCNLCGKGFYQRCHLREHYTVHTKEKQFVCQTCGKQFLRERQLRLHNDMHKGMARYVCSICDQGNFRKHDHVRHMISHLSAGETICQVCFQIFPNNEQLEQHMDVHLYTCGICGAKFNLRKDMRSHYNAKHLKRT
B2: Protein DBF4 homolog B (Homo sapiens), Q8NFT6 (parent)
chain: MSEPGKGDDCLELESSMAESRLRAPDLGVSRCLGKCQKNSPGARKHPFSGKSFYLDLPAGKNLQFLTGAIQQLGGVIEGFLSKEVSYIVSSRREVKAESSGKSHRGCPSPSPSEVRVETSAMVDPKGSHPRPSRKPVDSVPLSRGKELLQKAIRNQGSISGGGSGGSSSLLTNARSWGVRILHVDEMMMHVQQLSLASLCVKKQQPKKPEGTCPAAESRTRKVARLKAPFLKIEDESRKFRPFHHQFKSFPEISFLGPKDASPFEAPTTLGSMHHTRESKDGEPSPRSAAHTMPRRKKGYCECCQEAFEELHVHLQSAQHRSFALEAHLYAEVDRIIAQLSHSFADIPFQAGLPRWSGSPASDCDPLCPETLHPHQPSHPRAASPRIRKEDSCQASVTQGRAAGQQRWTESLDGVMGPPASHTCVSATTLLPALPKGSREQGCLCPCPASFTQSHLVTSLALLPGEWSPAEDMPLHPSQENSFAPADIPVKGPLLFPEARPWLMSARCWVRPFPFVTWGCLIPHDTTPLHEEVSPCPCLRLGYLYLLLTQSLWCRVRVPSLSTAGPIPRTSHPCTLAFPSYLNDHDLGHLCQAKPQGWNTPQPFLHCGFLAVDSG
partner: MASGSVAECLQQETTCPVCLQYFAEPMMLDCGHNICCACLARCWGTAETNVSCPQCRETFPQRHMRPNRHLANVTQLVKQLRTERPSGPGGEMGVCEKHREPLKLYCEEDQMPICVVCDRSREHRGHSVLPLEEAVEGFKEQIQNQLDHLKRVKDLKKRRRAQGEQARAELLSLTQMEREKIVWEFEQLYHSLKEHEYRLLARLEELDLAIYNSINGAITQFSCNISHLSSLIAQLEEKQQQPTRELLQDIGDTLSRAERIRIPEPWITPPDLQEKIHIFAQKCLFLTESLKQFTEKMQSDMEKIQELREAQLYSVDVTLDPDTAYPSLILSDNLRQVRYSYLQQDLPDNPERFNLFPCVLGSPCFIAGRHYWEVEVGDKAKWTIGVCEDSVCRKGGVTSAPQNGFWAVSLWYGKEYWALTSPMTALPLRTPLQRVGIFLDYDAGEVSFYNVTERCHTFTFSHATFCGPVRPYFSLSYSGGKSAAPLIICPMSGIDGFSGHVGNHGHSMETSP
B3: Origin recognition complex subunit 6 (Homo sapiens), Q9Y5N6 (parent)
chain: MGSELIGRLAPRLGLAEPDMLRKAEEYLRLSRVKCVGLSARTTETSSAVMCLDLAASWMKCPLDRAYLIKLSGLNKETYQSCLKSFECLLGLNSNIGIRDLAVQFSCIEAVNMASKILKSYESSLPQTQQVDLDLSRPLFTSAALLSACKILKLKVDKNKMVATSGVKKAIFDRLCKQLEKIGQQVDREPGDVATPPRKRKKIVVEAPAKEMEKVEEMPHKPQKDEDLTQDYEEWKRKILENAASAQKATAE
partner: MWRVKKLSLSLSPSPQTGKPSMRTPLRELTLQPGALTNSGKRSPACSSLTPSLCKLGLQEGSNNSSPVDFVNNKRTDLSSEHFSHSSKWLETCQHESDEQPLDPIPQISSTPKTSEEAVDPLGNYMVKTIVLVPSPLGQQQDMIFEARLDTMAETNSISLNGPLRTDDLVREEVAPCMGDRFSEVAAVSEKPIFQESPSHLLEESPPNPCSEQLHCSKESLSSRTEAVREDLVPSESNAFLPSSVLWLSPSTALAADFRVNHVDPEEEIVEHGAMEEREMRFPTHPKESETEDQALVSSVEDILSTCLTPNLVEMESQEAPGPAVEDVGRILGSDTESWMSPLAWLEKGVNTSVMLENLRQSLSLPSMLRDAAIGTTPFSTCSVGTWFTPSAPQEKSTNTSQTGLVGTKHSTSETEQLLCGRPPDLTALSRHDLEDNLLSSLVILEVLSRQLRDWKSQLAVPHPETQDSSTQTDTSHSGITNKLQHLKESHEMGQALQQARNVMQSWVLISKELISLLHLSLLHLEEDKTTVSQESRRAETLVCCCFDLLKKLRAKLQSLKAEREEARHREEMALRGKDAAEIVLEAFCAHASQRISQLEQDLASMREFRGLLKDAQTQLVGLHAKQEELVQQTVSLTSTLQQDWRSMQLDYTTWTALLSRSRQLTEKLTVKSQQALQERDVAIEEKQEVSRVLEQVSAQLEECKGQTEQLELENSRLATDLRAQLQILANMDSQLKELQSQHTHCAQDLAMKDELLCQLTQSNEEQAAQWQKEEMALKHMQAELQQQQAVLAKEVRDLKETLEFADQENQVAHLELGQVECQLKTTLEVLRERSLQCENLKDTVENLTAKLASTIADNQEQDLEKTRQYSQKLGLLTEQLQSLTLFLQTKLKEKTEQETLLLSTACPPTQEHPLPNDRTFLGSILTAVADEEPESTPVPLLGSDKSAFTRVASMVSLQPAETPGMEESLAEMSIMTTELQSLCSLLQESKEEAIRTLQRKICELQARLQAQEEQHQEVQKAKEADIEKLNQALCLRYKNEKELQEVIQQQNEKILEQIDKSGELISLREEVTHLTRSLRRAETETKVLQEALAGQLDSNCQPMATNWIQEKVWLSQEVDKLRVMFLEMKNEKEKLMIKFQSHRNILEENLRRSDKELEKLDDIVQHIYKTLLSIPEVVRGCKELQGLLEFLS
B4: Zinc finger protein 655 (Homo sapiens), Q8N720 (parent)
chain: MEEIPAQEAAGSPRVQFQSLETQSECLSPEPQFVQDTDMEQGLTGDGETREENKLLIPKQKISEEVHSYKVRVGRLKHDITQVPETREVYKSEDRLERLQEILRKFLYLEREFRQITISKETFTSEKNNECHEPEKSFSLDSTIDADQRVLRIQNTDDNDKYDMSFNQNSASGKHEHLNLTEDFQSSECKESLMDLSHLNKWESIPNTEKSYKCDVCGKIFHQSSALTRHQRIHTREKPYKCKECEKSFSQSSSLSRHKRIHTREKPYKCEASDKSCEASDKSCSPSSGIIQHKKIHTRAKSYKCSSCERVFSRSVHLTQHQKIHKEMPCKCTVCGSDFCHTSYLLEHQRVHHEEKAYEYDEYGLAYIKQQGIHFREKPYTCSECGKDFRLNSHLIQHQRIHTGEKAHECNECGKAFSQTSCLIQHHKMHRKEKSYECNEYEGSFSHSSDLILQQEVLTRQKAFDCDVWEKNSSQRAHLVQHQSIHTKENS
partner: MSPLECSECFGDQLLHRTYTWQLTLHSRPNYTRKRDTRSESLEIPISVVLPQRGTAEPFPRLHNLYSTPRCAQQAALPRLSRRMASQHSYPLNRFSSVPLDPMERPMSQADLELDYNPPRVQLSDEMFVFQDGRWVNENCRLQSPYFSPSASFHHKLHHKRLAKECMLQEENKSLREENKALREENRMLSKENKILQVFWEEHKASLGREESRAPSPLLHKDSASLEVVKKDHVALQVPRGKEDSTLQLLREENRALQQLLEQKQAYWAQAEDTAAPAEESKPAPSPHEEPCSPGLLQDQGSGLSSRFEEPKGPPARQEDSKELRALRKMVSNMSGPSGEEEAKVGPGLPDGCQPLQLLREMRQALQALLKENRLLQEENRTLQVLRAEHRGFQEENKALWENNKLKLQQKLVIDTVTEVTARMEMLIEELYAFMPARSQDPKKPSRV
B5: MYG1 exonuclease (Homo sapiens), Q9HB07 (parent)
chain: MGHRFLRGLLTLLLPPPPLYTRHRMLGPESVPPPKRSRSKLMAPPRIGTHNGTFHCDEALACALLRLLPEYRDAEIVRTRDPEKLASCDIVVDVGGEYDPRRHRYDHHQRSFTETMSSLSPGKPWQTKLSSAGLIYLHFGHKLLAQLLGTSEEDSMVGTLYDKMYENFVEEVDAVDNGISQWAEGEPRYALTTTLSARVARLNPTWNHPDQDTEAGFKRAMDLVQEEFLQRLDFYQHSWLPARALVEEALAQRFQVDPSGEIVELAKGACPWKEHLYHLESGLSPPVAIFFVIYTDQAGQWRIQCVPKEPHSFQSRLPLPEPWRGLRDEALDQVSGIPGCIFVHASGFIGGHRTREGALSMARATLAQRSYLPQIS
partner: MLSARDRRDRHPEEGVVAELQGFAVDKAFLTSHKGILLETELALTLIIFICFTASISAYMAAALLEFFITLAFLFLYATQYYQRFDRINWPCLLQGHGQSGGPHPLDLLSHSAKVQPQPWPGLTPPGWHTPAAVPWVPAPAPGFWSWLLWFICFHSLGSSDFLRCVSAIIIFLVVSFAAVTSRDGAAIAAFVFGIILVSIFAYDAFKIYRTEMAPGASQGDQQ

Variants of: B1
Settings: with zbtb1_human ZBTB1, Q9Y2K1

Variant	effect of a mutation on the interaction
A142T	disrupting interaction strength

Variants of: B2
Settings: with tri27_human TRIM27, P14373

Variant	effect of a mutation on the interaction
L199S	with no effect

Variants of: B3
Settings: with spag5_human SPAG5, Q96R06

Variant	effect of a mutation on the interaction
K201N	with no effect

Variants of: B4
Settings: with cby2_human CBY2, Q8NA61

Variant	effect of a mutation on the interaction
C466G	with no effect

Variants of: B5
Settings: with cklf5_human CMTM5, Q96DZ9

Variant	effect of a mutation on the interaction
R243Q	with no effect
R188Q	with no effect
